Test results from US20250276077A1, “EPHA2 ANTIBODIES” (Immunome, Inc., priority 2022, published 2025).
Entries after “also recorded” stand apart in the source; their conditions may differ.

Experiments:
[1] = test system: A549 cells; experiment: ADCP with RAW264.7 mouse macrophage effector cells; assay type: cell-based, human
Procedure: For antibody-dependent cellular phagocytosis (ADCP), the cell membranes of target cells were labeled with green fluorescent membrane dye preceding opsonization with different concentrations of antibody at room temperature for 30 minutes. RAW264.7 mouse macrophage (effector) cells were then added at a 1:1 ratio with the target cells and co-cultured at 37° C. and 5% CO2 for 2 hours. After incubation, the cell mixture was dissociated with 2 mM ethylenediaminetetraacetic acid (EDTA, pH 7.4). The cell suspension was then washed several times in an isotonic salt solution and probed with a commercially available anti-CD11b antibody, conjugated with Allophycocyanin (APC). After a 30-minute incubation at 4° C. with this antibody, the cell suspension was washed again before being analyzed by flow cytometry.

[2] = test system: A549 cells; experiment: ADCC (KILR target cells, NK92 CD16 chimera effector cells); assay type: cell-based, human; details: for ADCC activity on A549 cells (in words): comparisons are to AB-008873 or parent; for ADCC - dAct rel. parent, Trial 1: Trial 1, relative to parent antibody; for ADCC - dAct rel. parent, Trial 2: Trial 2, relative to parent antibody
Procedure: (§1) To detect Antibody-dependent cellular cytotoxicity (ADCC), KILR™-transfected target cells were opsonized with different concentrations of the antibody at room temperature for 20 minutes. Following, NK92 cells carrying a mouse extracellular-human intracellular CD16 chimera were added at a 5:1 ratio of effector to target cells. After a 4 h co-culture at 37° C. and 5% CO2, pre-mixed KILR™ detection reagent was added to each well at equal volume and allowed to incubate for 30 min at room temperature in the dark before reading luminescence on a pate reader. Cytotoxicity was calculated after background (spontaneous release) subtraction and expressed as percent of a maximum lysis control.

[3] = test system: A549 cells; experiment: Flow screen (in vitro) surface binding; set-up: species or system human; details: flow cytometry; comparisons are to AB-008873
Procedure: Surface binding of the antibodies to in vitro grown cell lines was assessed by flow cytometry. Tumor cells were detached from their culture plate using Versene and counted. Cells were staining in BSA-containing buffer with primary antibody for 30 minutes at 4° C. with shaking. Following, cells were washed and stained with secondary PE-labeled antibody for 30 minutes at 4° C. with shaking. Before analysis on an Intellicyt iQue3 scanner, cells were counterstained with DAPI. MedFI values from live, single cells was expressed as fold over isotype control.

[4] = test system: PC3-KILR cells; experiment: ADCC (KILR target cells, NK92 CD16 chimera effector cells); assay type: cell-based, human
Procedure: as §1

[5] = molecular target: T1, extracellular domain of human EphA2 (25-534) (Homo sapiens, UniProt P29317); experiment: Epitope binning by bio-layer interferometry (Octet, in-tandem); assay type: binding
T1 construct: extracellular domain of human EphA2 (25-534) with a C-terminal HIS tag; purchased R&D Systems 3035-A2
T1 sequence (P29317 25-534): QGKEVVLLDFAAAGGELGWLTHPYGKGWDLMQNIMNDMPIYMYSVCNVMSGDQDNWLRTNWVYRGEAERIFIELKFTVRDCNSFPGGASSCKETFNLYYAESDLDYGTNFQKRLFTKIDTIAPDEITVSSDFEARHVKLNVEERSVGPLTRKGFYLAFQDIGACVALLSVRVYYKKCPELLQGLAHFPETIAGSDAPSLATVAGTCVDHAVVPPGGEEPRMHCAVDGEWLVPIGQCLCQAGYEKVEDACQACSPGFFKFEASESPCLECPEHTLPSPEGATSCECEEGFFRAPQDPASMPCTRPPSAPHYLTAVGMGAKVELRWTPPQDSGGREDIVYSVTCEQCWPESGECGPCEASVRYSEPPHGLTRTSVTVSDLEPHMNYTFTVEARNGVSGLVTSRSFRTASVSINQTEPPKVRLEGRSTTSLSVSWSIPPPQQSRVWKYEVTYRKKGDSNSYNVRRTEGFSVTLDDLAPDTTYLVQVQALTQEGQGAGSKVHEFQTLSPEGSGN
Procedure: Epitope binning was performed using an Octet Red 96E instrument (Sartorius) using the in-tandem format. In this format, antigen is captured on a biosensor tip, a first antibody (or other binding partner) is bound to saturation, and subsequently the ability of a second antibody (or binding partner) known to recognize the antigen is assessed. If substantial binding by the second species is no longer observed, it is supportive that simultaneous binding is sterically hindered (i.e., the second species is “blocked” by pre-saturation of the 1st) and that the two may bind overlapping epitopes. If, however, substantial binding of the second species is observed, despite saturation of the first, it is supportive that the two bind non-overlapping epitopes. Groups of antibodies that block one another can be considered to populate the same epitope bin.
The fourth antibody Fv region (AB-008873) was discovered via Atreca's Immune Repertoire Capture (IRC™). Antibodies were produced with mouse IgG2a constant regions. The natural ligand tested was EphrinA1 fused to Fc (Acro, EF1-H5251). Antigen immobilized on the biosensor was the extracellular domain of human EphA2 (25-534) with a C-terminal HIS tag (R&D Systems, 3035-A2) and captured using Ni-NTA tips (Sartorius, 18-5102). Protein solutions were made in 1× Kinetics buffer (Satorius, 18-1092) supplemented with 2.5 mM Imidazole to reduce non-specific binding. Each pairwise interaction was assessed in both orders of addition, and controls for binding in the absence of antigen or with antigen but without a first binding species included. Binning indicated the five molecules populated only two Bins. The first bin contains molecules AB-008873 and AB-010018 and was interpreted to represent epitopes on the membrane proximal fibronectin domain of EphA2 based on the reported epitope location of DS-8895a (Hasegawa, J. et al., Novel anti-EPHA2 antibody, DS-8895a for cancer treatment. Cancer Biology and Therapy, 17(11), 1158-1167 (2016)). The second bin contains molecules AB-010017. AB-010016, and EphrinA1-Fc and was interpreted to represent epitopes on the ligand binding domain (Peng, L. et al., Structural and functional characterization of an agonistic anti-human EphA2 monoclonal antibody. Journal of Molecular Biology, 413(2), 390-405 (2011); Geddie, M. L. et al., Improving the developability of an anti-EphA2 single-chain variable fragment for nanoparticle targeting. MAbs, 9(1), 58-67 (2017)). FIG. 5, Tables 41-42. Referring to FIG. 5, the FN2 location in the first bin is inferred from domain deletion data reported in Hasegawa et al., 2016, FIG. 1, noting that the reported MMP cleavage sites are (385/395/432/435).

B1: AB-009807: sibling of AB-008873; VH SEQ ID NO: 70, VL SEQ ID NO: 81 (antibody, V domains shown)
VH: QVQLQQWGAGLLKPSETLSLTCAVYGGSFNDYYWSWIRQPPGKGLEWIGEVNHSGSTSYNPSLKSRVTISVDTSKNQFSLKLSSVTAADTAVYYCAKPFRPHCTNGVCYSGDAFDIWGQGTMVTVSS
VL: SYVLTQPPSVSVAPGQTARITCGGNNIGSKNVHWYQQKPGQAPALVVYDDSDRPSGIPEQFSGSNSGNTATLTISRVEAGDEADYYCQVWDSSSDHLVFGGGTKLTVL
- ADCP activity on A549 cells (in words) [1]: less than that of AB-008873; also recorded: some ADCP activity
- ADCC activity on A549 cells (in words) [2]: less than that of AB-008873; also recorded: little binding and ADCC activity
- binding to A549 cells (in words) [3]: less than that of AB-008873; also recorded: little binding and ADCC activity

B2: AB-010685: VH SEQ ID NO: 638, VL SEQ ID NO: 703; H107TI; L29SY; L92SH relative to AB-010361 (antibody, V domains shown)
VH: QVQLQQWGAGLLKPSETLSLTCAVYGGSFSGYYWSWIRQPPGKGLEWIGEINHRGSINYNNYNPSLKSRVTISVDTSKNQFSLKLSSVTAADTAVYYCAKPLRPHCINGVCYSGDAFDIWGQGTMVTVAS
VL: SYVLTQPPSVSVAPGQTARITCGGNNIGYKNVHWYQQKPGQAPVLVVYDDSDRPSGIPEQFSGSNSGNTATLTISRVEAGDEADYYCQVWDHSSDHVVFGGGTKLTVL
- EC50 ([2]; A549 tumor cells): ~6 pM
- ADCC - dAct rel. parent, Trial 1 ([2]; A549 tumor cells): 161.1%
- ADCC - dAct rel. parent, Trial 2 ([2]; A549 tumor cells): 106.4%
- ADCC activity on A549 cells (in words) [2]: improved ADCC activity
- ADCC potency on PC3-KILR cells (in words) [4]: highly potent
- fold improvement in ADCC as compared to AB-010018 ([4]; PC3-KILR cells): 10 fold

B3: EphrinA1-Fc: natural ligand EphrinA1 fused to Fc (Acro, EF1-H5251) (protein)
chain: DRHTVFWNSSNPKFRNEDYTIHVQLNDYVDIICPHYEDHSVADAAMEQYILYLVEHEEYQLCQPQSKDQVRWQCNRPSAKHGPEKLSEKFQRFTPFTLGKEFKEGHSYYYISKPIHQHEDRCLRLKVTVSGKITHSPQAHDNPQEKRLAADDPEVRVLHSIGHS
modifications: left off: a dimerising Fc or GST
- epitope bin ([5]; first bin: membrane proximal fibronectin domain, second bin: ligand binding domain): second bin

B4: AB-010686: VH SEQ ID NO: 639, VL SEQ ID NO: 704; L93SR relative to AB-010361 (antibody, V domains shown)
VH: QVQLQQWGAGLLKPSETLSLTCAVYGGSFSGYYWSWIRQPPGKGLEWIGEINHRGSINYNNYNPSLKSRVTISVDTSKNQFSLKLSSVTAADTAVYYCAKPLRPHCTNGVCYSGDAFDIWGQGTMVTVAS
VL: SYVLTQPPSVSVAPGQTARITCGGNNIGSKNVHWYQQKPGQAPVLVVYDDSDRPSGIPEQFSGSNSGNTATLTISRVEAGDEADYYCQVWDSRSDHVVFGGGTKLTVL
- ADCC - dAct rel. parent, Trial 1 ([2]; A549 tumor cells): 132.3%

B5: AB-010687: VH SEQ ID NO: 640, VL SEQ ID NO: 705; L93SE relative to AB-010361 (antibody, V domains shown)
VH: QVQLQQWGAGLLKPSETLSLTCAVYGGSFSGYYWSWIRQPPGKGLEWIGEINHRGSINYNNYNPSLKSRVTISVDTSKNQFSLKLSSVTAADTAVYYCAKPLRPHCTNGVCYSGDAFDIWGQGTMVTVAS
VL: SYVLTQPPSVSVAPGQTARITCGGNNIGSKNVHWYQQKPGQAPVLVVYDDSDRPSGIPEQFSGSNSGNTATLTISRVEAGDEADYYCQVWDSESDHVVFGGGTKLTVL
- ADCC - dAct rel. parent, Trial 1 ([2]; A549 tumor cells): 166.8%

B6: AB-010688: VH SEQ ID NO: 641, VL SEQ ID NO: 706; L29SY; L93SE relative to AB-010361 (antibody, V domains shown)
VH: QVQLQQWGAGLLKPSETLSLTCAVYGGSFSGYYWSWIRQPPGKGLEWIGEINHRGSINYNNYNPSLKSRVTISVDTSKNQFSLKLSSVTAADTAVYYCAKPLRPHCTNGVCYSGDAFDIWGQGTMVTVAS
VL: SYVLTQPPSVSVAPGQTARITCGGNNIGYKNVHWYQQKPGQAPVLVVYDDSDRPSGIPEQFSGSNSGNTATLTISRVEAGDEADYYCQVWDSESDHVVFGGGTKLTVL
- ADCC - dAct rel. parent, Trial 1 ([2]; A549 tumor cells): 129.9%
- ADCC - dAct rel. parent, Trial 2 ([2]; A549 tumor cells): 108.0%

B7: Ephrin-A1 (protein)
chain: DRHTVFWNSSNPKFRNEDYTIHVQLNDYVDIICPHYEDHSVADAAMEQYILYLVEHEEYQLCQPQSKDQVRWQCNRPSAKHGPEKLSEKFQRFTPFTLGKEFKEGHSYYYISKPIHQHEDRCLRLKVTVSGKITHSPQAHDNPQEKRLAADDPEVRVLHSIGHS
modifications: left off: a dimerising Fc or GST
- Octet in tandem binning, Notes/Scoring ([5]; label = Analyte 1, Analyte 2 8873-02, NiNTA tip, Ligand R&D ECD-06): Binding observed
- Octet in tandem binning (blocked / binds) ([5]; paired with 8873-2 (column; Bin #1 - FN2)): binds
- Octet in tandem binning (blocked / binds) ([5]; paired with 10016-01 (Bin #2 - LBD)): blocked
- Octet in tandem binning (blocked / binds) ([5]; paired with 10017-01 (Bin #2 - LBD)): blocked
- Octet in tandem binning (blocked / binds) ([5]; paired with 10018-01 (column; Bin #1 - FN2)): binds
- Octet in tandem binning (blocked / binds) ([5]; paired with Ephrin-A1 (Bin #2 - LBD)): blocked
